The target in data set [1] is SDHA (endogenous, in mitochondria isolated from mouse IECs and in C57BL/6 primary colonic epithelial cells), Q8K2B3.
For data set [2], the target named is Serpin 3A.
For data set [3], the target named is mutated SDHA protein with His Tag (mouse; Ile-Glu-Asp-Gly changed to Ile-Glu-Ala-Gly at the putative GzmB cleavage site), Q8K2B3.
mutated SDHA protein with His Tag (mouse; Ile-Glu-Asp-Gly changed to Ile-Glu-Ala-Gly at the putative GzmB cleavage site), Q8K2B3, sequence (Q8K2B3 whole entry, looked up, change not shown): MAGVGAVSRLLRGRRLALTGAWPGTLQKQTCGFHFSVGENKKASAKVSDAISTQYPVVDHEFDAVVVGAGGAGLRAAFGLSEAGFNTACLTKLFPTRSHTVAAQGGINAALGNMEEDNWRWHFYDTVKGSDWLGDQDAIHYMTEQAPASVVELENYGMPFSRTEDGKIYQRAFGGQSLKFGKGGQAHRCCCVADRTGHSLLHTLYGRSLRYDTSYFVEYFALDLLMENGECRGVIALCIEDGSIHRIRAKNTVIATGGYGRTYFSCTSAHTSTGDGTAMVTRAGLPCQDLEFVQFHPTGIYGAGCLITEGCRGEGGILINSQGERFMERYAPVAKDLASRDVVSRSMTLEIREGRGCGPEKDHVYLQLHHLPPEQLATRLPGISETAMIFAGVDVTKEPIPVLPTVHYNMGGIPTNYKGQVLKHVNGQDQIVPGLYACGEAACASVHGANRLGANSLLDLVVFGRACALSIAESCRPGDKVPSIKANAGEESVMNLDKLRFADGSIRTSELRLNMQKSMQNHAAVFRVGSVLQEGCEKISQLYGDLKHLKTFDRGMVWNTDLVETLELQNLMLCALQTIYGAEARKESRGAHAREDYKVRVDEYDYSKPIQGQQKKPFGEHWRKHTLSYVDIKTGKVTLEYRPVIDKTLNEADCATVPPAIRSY

SDHA (endogenous, in mitochondria isolated from mouse IECs and in C57BL/6 primary colonic epithelial cells), Q8K2B3, sequence (Q8K2B3 43-664): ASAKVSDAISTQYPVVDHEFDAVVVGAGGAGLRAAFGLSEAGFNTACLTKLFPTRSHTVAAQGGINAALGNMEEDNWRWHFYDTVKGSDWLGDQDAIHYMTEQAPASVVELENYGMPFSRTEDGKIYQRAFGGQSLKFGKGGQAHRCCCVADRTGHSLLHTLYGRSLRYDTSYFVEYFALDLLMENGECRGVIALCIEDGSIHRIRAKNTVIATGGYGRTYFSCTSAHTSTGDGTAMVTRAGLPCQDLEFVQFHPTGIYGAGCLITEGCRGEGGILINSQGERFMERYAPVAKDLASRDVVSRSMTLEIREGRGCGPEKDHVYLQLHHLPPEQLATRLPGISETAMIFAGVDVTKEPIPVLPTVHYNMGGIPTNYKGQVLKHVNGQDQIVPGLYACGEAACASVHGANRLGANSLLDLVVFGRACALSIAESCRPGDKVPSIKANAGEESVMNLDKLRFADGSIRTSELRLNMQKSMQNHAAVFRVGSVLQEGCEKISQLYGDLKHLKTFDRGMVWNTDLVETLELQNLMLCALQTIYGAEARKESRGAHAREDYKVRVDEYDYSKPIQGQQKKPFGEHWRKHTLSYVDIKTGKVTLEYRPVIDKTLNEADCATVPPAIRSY

B1: recombinant mouse Granzyme B (protein)
chain: IIGGHEVKPHSRPYMALLSIKDQQPEAICGGFLIREDFVLTAAHCEGSIINVTLGAHNIKEQEKTQQVIPMVKCIPHPDYNPKTFSNDIMLLKLKSKAKRTRAVRPLNLPRRNVNVKPGDVCYVAGWGRMAPMGKYSNTLQEVELTVQKDRECESYFKNRYNKTNQICAGDPKTKRASFRGDSGGPLVCKKVAAGIVSYGYKDGSPPRAFTKVSSFLSWIKKTMKSS
On to B1, for which, in data set [1], the “proteolysis of SDHA in isolated IEC mitochondria (immunoblot of full length and cleaved SDHA)” value is given as “Treatment with GzmB caused proteolysis of SDHA with a reduction in SDHA with an increase in SDHA cleaved fragments”. Besides, in data set [2], the “proteolysis of SDHA by GzmB in PCECs treated with perforin, Granzyme B and Serpin 3A for 6 hours (immunoblot of SDHA)” value was “The presence of Serpin 3A prevented the proteolysis of SDHA by GzmB”. Further, the “proteolysis of mutated SDHA protein (anti-His immunoblot, 6 hours)” value in data set [3] was “the mutation of the cleavage site prevented proteolysis of SDHA by GzmB”.

For the origin of these results see patent US20240082183.
